Measured values as given in patent US20240002530A1 (LXZ SERVICES, published 2024).
Positions count from the first letter of the chain named.

B1: Antibody No. 12 (antibody, V domains shown)
VH: VQLQESGPGLVKPSQSLSLTCTVTGYSITSDYAWNWIRQFPGNKLEWMGYISYSGSTSYNPSLKSRISITRDTSKNQFFLHLNSVTTEDTATYYCARQTYYYGSSPFTYWGQGTTVTVSS
VL: DIVMTQTPSSLTVTAGEKVTMRCKSSQSLLNSGNQKSYLTWYQQKPGQPPKLLIYWASTRESGVPDRFTGSGSGTDFTLTISSVQAEDLAVYYCQNDYSYPLTFGAGTKLELK
notes: Mouse hybridoma monoclonal IgG from ascites; also called PSMA-McAb clone 12
B2: Antibody No. 18 (antibody, V domains shown)
VH: VQLEESGDDLVKPGASVKLSCKASGHTFTSYWINWIKQRPGQGLEWIGRIAPGSGSTYYNEMFKGKATLTVDTSSSTAYIQLSSLSSEDSAVYFCARNLKYGNYGFAYWGQGTTVTVSS
VL: B1 VL with R22S, S37N, L112I
notes: Mouse hybridoma monoclonal IgG from ascites; also called PSMA-McAb clone 18
B3: Antibody No. 14 (antibody, V domains shown)
VH: VQLQESGPGLVQPSQSLSITCTVSGFSLTSYGVHWVRQSPGKGLEWLGVIWRGGSTDYNAAFMSRLSITKDNSKSQVFFKMNSLQADDTAIYYCAKKKYGNYGAMDYWGQGTTVTVSS
VL: DIVMTQSPKFLLVSAGDRVTITCKASQSVSNDVAWYQQKPGQSPKLLIYYASNRYTGVPDRFTGSGYGTDFTFTISTVQAEDLAVYFCQQDYSSPYTFGGGTKLELK
notes: Mouse hybridoma monoclonal IgG from ascites; also called PSMA-McAb clone 14

Each binder was assayed against T1, human prostate-specific membrane antigen (PSMA), on prostate cancer LNCaP and PC-3 cells (human, UniProt Q04609 1-750) (assay: flow cytometry on LNCaP cells).
T1 construct: also called glutamate carboxypeptidase II; GCPII
T1 sequence (Q04609 whole entry): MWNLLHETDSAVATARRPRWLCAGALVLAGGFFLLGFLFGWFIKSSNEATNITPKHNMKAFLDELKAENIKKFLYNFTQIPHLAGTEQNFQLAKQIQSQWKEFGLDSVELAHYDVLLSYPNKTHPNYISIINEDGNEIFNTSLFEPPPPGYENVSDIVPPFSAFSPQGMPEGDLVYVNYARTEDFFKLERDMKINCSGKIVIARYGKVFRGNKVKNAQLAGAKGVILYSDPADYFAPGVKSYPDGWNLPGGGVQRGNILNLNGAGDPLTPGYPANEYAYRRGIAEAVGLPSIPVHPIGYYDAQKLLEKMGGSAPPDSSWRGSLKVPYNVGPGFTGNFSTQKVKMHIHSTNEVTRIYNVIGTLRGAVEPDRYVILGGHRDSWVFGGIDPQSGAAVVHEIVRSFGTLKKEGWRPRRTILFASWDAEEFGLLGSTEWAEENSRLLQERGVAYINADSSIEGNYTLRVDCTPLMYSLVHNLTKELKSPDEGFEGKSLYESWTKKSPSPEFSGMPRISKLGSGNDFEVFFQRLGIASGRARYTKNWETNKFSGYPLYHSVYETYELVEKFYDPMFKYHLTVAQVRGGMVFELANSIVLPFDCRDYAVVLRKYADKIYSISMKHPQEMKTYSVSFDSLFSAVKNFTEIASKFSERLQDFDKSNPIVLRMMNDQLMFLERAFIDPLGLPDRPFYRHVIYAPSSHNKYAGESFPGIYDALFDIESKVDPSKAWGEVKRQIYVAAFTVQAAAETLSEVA

binding result | Binder
binds | B1
binds | B2
binds | B3
